What was measured:
human CD4+ T cells = assay: Cytokine secretion by CD4+ T cells with C5aR or C5aR/C5L2 blockade (Cytometric Bead Array); format: cell-based
Excerpt: Human blood was obtained from healthy volunteers following ethical guidelines set by Kings College London (KCL) ethics committee (REC: 09/H0804/72). PBMCs were isolated by density centrifugation (Ficoll-Paque PLUS; GE healthcare, Uppsala, Sweden). Cell subsets were isolated by magnetic separation following manufacturer's instructions (Miltenyi Biotec, Auburn, Calif.). Monocytes were positively selected using anti-CD14 microbeads (average purity 97%) and CD4^+ T cells were isolated from the CD14-negative fraction using anti-CD4 microbeads (average purity 98%). Alternatively, CD4^+ T cells were isolated from purified PBMCs by cell sorting after staining with antibodies to CD14 and CD4 and CD3.
CD4^+ T cells and CD14^+ monocytes were cultured in medium (RPMI-1640 medium (Sigma-Alich, Suffolk, UK), supplemented with 1% GlutaMAX, 1% penicillin/streptomycin (both Life Technologies, Paisley, UK) and 10% FBS (HyClone Laboratories, Logan, Utah). In the case of T cells media was supplemented with 25 U/ml IL-2 (Sigma-Aldrich; or with concentrations indicated in figure legends). CD4^+ T cells (2.5×10^5) were cultured alone or together with plate-bound anti-CD3 (OKT3, Biolegend, San Diego, Calif.), anti-CD3 and anti-CD28 (CD28.2, BD Pharmingen, San Jose, Calif.) or anti-CD3 and anti-CD46 (TRA-2-10, provided by John Atkinson, Washington University, St Louis, Mo.) all immobilised onto 48-well plates at concentrations of 2 μg/ml PBS overnight at 4° C. Monocytes (2.5×10^5) were cultured either alone or in the presence of LPS or Flagellin (1 μg/ml). […] Cells were cultured at 37° C. and 5% CO2 and cytokine secetion assessed at 12, 24 or 36 h post activation.
(§1) The Th1/Th2/Th17 Cytometric Bead Array (BD Bioscience) was used to quantify cytokine production by CD4^+ T cells and monocytes following 12 or 36 h culture under distinct activation conditions. Samples were processed following manufacturer's instructions and acquired using BD FACScan. IL-1β amounts secreted into the cell media were measured by ELISA, according to the manufacturer's protocol (R&D Systems, Abingdon, UK).

CD14+ monocytes [1] = assay: IL-1β secretion by monocytes (ELISA); format: cell-based, human; settings: resting and LPS-activated (100 ng/ml, 12 h) monocytes; FIG. 8
Method: FIG. 8. Effect of C5L2 blockage on IL-1β secretion by resting and activated CD4+ T cells and by monocytes. […] CD4+ T cells were isolated and left non-activated or CD3/CD46-activated as described (with or without addition of the C5aR/C5L2 double antagonist, dRA, 7 μM) and IL-1β secretion into the media measured at 24 h post activation using an ELISA. CD14+ monocytes (2.5×10^5) were left non-activated or activated with 100 ng/ml LPS for 12 h and supernatants assayed for IL-1β by ELISA. Data represent n=3 experiments with SEM for the CD4+ T cells and n=1 for monocytes (conditions were performed in duplicate and shown are the median values of each condition).
Human blood was obtained from healthy volunteers following ethical guidelines set by Kings College London (KCL) ethics committee (REC: 09/H0804/72). PBMCs were isolated by density centrifugation (Ficoll-Paque PLUS; GE healthcare, Uppsala, Sweden). Cell subsets were isolated by magnetic separation following manufacturer's instructions (Miltenyi Biotec, Auburn, Calif.). […]
as §1, with “Samples were processed following manufacturer's instructions and acquired using BD FACScan.” left out

CD14+ monocytes [2] = assay: Pro-inflammatory cytokine release by monocytes (CBA); format: cell-based, human; settings: resting and Flagellin-stimulated monocytes; 36 hours; dRA 7 μM, PMX53 10 μM; FIG. 9
Method: FIG. 9. C5L2 blockade induces pro-inflammatory cytokine release by human monocytes. CD14+ monocytes (2.5×10^5) were cultured for 36 hours and supernatants assayed for cytokines using CBA. Monocytes were treated with either C5aR/C5L2 double receptor antagonist (dRA; 7 μM), C5aR antagonist (PMX53; 10 μM) or control (non-treated). The effect of antagonist treatment was assessed on non-activated monocytes (white bars) as well as monocytes activated with 1 μg/ml of either Flagellin (light grey bars) or 100 ng/ml LPS (dark grey bars). Data represent n=4 experiments with SEM indicated. Statistical testing was not conducted as insufficient experimental repeats were performed to assume normal distribution. Asterisk denotes that the median value was 10,400 pg/ml.
Human blood was obtained from healthy volunteers following ethical guidelines set by Kings College London (KCL) ethics committee (REC: 09/H0804/72). PBMCs were isolated by density centrifugation (Ficoll-Paque PLUS; GE healthcare, Uppsala, Sweden). […]
as §1, with “Samples were processed following manufacturer's instructions and acquired using BD FACScan.” left out

[3] = activated CD4+ T cells, dRA 7 μM, PMX53 10 μM, FIG. 6

B1: A8delta71-73: Dual C5aR/C5L2 receptor antagonist; C5a variant A8 (C27A, H67F, D69R, M70S, Q71L, G73R, Arg74 deleted) lacking amino acids 71-73 (protein)
chain: TLQKKIEEIAAKYKHSVVKKCCYDGAAVNNDETCEQRAARISLGPRCIKAFTECCVVASQLRANISFKRS
secretion of IFN-γ (human CD4+ T cells; [3]): increased secretion
secretion of IL-17 (human CD4+ T cells; [3]): increased secretion
secretion of IL-6 (human CD4+ T cells; resting and activated CD4+ T cells, FIG. 7A): increased secretion
IL-1β secretion (CD14+ monocytes [1]): increased IL-1β secretion
secretion of IL-6 (CD14+ monocytes [2]): promoted secretion
